B1: Hairpin Ribozyme (parent)
chain: GUCCUCUUUCACGUGCGCGUGAAAGAGAGAAGUGAACCAGAGAAACACACGUUGUGGUAUAUUACCUGGUA

This note sets out measurements from the RNAGym collection of RNA variant scans (doi:10.7554/elife.80360).

In this data set the parent is B1. Description: self-cleavage, relative activity (ratio to wild type); higher = more cleavage; co-transcriptional.
As for A23G U63C, the self-cleavage is 0.148.

In the case of A24G G57U, the self-cleavage is 0.307.

Consider A24C U67A, for which the self-cleavage came to 0.185.

A24C U67G: the self-cleavage is 0.27.

As to A23C C66G, the self-cleavage is 0.166.

On to A24C U33G, for which the self-cleavage came to 0.152.

In the case of A23C U55A, the self-cleavage is 0.17.

A23C U55G: the self-cleavage was determined as 0.359.

As to A23C A31G, the self-cleavage was determined as 0.696.

Consider A23C A26C, for which the self-cleavage turned out to be 0.507.

Consider A24G U70G, for which the self-cleavage came out at 0.834.

For A23G G34U, the self-cleavage was determined as 1.29.

On to A23U A61U, for which the self-cleavage stood at 0.0982.

Turning to A23C U67G, the self-cleavage worked out at 0.27.

As to A23U C65G, the self-cleavage amounted to 0.159.

Take A23C C46A: the self-cleavage was 0.131.

A24U A39U: the self-cleavage turned out to be 0.38.

Take A23U A71G: the self-cleavage is 0.876.

On to A23G U60A, for which the self-cleavage was 0.694.

With A24G U62A, the self-cleavage was 0.316.

Consider A23U C50U, for which the self-cleavage turned out to be 0.376.

Turning to A22U C50G, the self-cleavage was 0.223.

With A24G U53G, the self-cleavage came out at 0.591.

A24C A30U: the self-cleavage was 0.146.

As to A24C A30C, the self-cleavage was determined as 0.242.

With A24G A31G, the self-cleavage amounted to 0.662.

Regarding A24U U63A, the self-cleavage came out at 0.237.

For A24U U63G, the self-cleavage is 0.146.

Consider A24U G42A, for which the self-cleavage stood at 0.257.

Turning to A23U G69A, the self-cleavage came to 0.335.

For A23U G69C, the self-cleavage worked out at 0.325.

Take A24G A43C: the self-cleavage came to 0.19.

A24G A43U: the self-cleavage amounted to 0.104.

Take A22U C46U: the self-cleavage stood at 0.117.

As for A24U C65G, the self-cleavage worked out at 0.302.

In the case of A23U C37A, the self-cleavage turned out to be 0.324.

For A23U G32C, the self-cleavage came to 0.231.

With A23U A24C, the self-cleavage came to 1.02.

In the case of A23C A39U, the self-cleavage came to 0.269.

As for A24U C48G, the self-cleavage amounted to 0.245.

Turning to A22G U70G, the self-cleavage stood at 0.658.

For A22G U70A, the self-cleavage was determined as 0.81.

Regarding A23U C66A, the self-cleavage was 0.294.

For A23C U63A, the self-cleavage came out at 0.238.

Turning to A23C U63G, the self-cleavage amounted to 0.273.

For the variant A24G U52C, the self-cleavage is 0.762.

For A24G U52G, the self-cleavage worked out at 0.687.

As for A24G C65G, the self-cleavage is 0.296.

With A23G G27U, the self-cleavage amounted to 0.254.

As for A24G A36U, the self-cleavage is 0.397.

A24C A61G: the self-cleavage came out at 0.156.

On to A24C A61C, for which the self-cleavage amounted to 0.139.

With A24C A61U, the self-cleavage was determined as 0.189.

A24C G34A: the self-cleavage was 0.895.

Consider A24C U53A, for which the self-cleavage is 1.08.

As to A24C U53C, the self-cleavage came out at 0.735.

On to A23C A35C, for which the self-cleavage was 0.797.

Take A23C A35U: the self-cleavage is 0.559.

Consider A24U U60A, for which the self-cleavage is 0.57.

Turning to A24U U60G, the self-cleavage came out at 0.531.

Take A24U G56A: the self-cleavage came out at 0.212.

In the case of A24G U63G, the self-cleavage was determined as 0.154.

Turning to A24U A47U, the self-cleavage amounted to 0.144.

In the case of A22U U53G, the self-cleavage was found to be 0.817.

With A24U A36C, the self-cleavage was found to be 0.517.

For A24U C66G, the self-cleavage was found to be 0.207.

Turning to A24U C66U, the self-cleavage was 0.412.

For the variant A24U C66A, the self-cleavage is 0.137.

Regarding A22U C37G, the self-cleavage came to 0.339.

For the variant A24G C46G, the self-cleavage is 0.105.

Consider A24G C46A, for which the self-cleavage is 0.107.

In the case of A22G U58G, the self-cleavage was 0.528.

Turning to A22G U58C, the self-cleavage was found to be 0.954.

Take A22G U55C: the self-cleavage came out at 0.294.

For the variant A24U G54U, the self-cleavage amounted to 0.476.

A22U U58A: the self-cleavage stood at 0.589.

Regarding A22U U58G, the self-cleavage is 0.769.

A23U A45C: the self-cleavage turned out to be 0.111.

A24G U67C: the self-cleavage turned out to be 0.222.

Regarding A24G U67G, the self-cleavage worked out at 0.263.

Take A23C A41C: the self-cleavage was determined as 0.948.

As for A23C A41U, the self-cleavage came out at 0.911.

A24G U60A: the self-cleavage was found to be 0.861.

In the case of A24G U60G, the self-cleavage was found to be 0.661.

For the variant A22U U67G, the self-cleavage is 0.295.

Take A23C U53A: the self-cleavage stood at 0.757.

A22U C66U: the self-cleavage was 0.482.

Turning to A23U A39G, the self-cleavage is 0.298.

Take A23U A39U: the self-cleavage is 0.385.

In the case of A23U U52C, the self-cleavage amounted to 0.677.

With A23U U52A, the self-cleavage is 0.947.

Take A23G A39C: the self-cleavage turned out to be 0.408.

On to A23G A39U, for which the self-cleavage stood at 0.252.

As to A23G A39G, the self-cleavage was determined as 0.353.

On to A24C C38A, for which the self-cleavage stood at 0.228.

Take A24U A71C: the self-cleavage stood at 1.27.

Turning to A24U A41C, the self-cleavage is 1.1.

On to A24U A41U, for which the self-cleavage amounted to 1.17.

As to A23G U58C, the self-cleavage worked out at 0.847.

In the case of A23C A36G, the self-cleavage was determined as 1.08.

For the variant A24U C46G, the self-cleavage is 0.113.

In the case of A24U C46U, the self-cleavage stood at 0.264.

Regarding A24C G51U, the self-cleavage was determined as 0.878.

For A22U G56A, the self-cleavage stood at 0.147.

For A24C A71U, the self-cleavage amounted to 0.696.

As to A23C A43C, the self-cleavage came out at 0.146.

For A23C A43G, the self-cleavage worked out at 0.0715.

As for A24G G25A, the self-cleavage turned out to be 0.591.

Take A24G G25C: the self-cleavage was found to be 0.668.

As to A22U U63A, the self-cleavage came to 0.155.

As to A22G U52A, the self-cleavage amounted to 0.853.

In the case of A23C U70C, the self-cleavage is 1.06.

A23G G54A: the self-cleavage is 0.489.

As to A23G U52C, the self-cleavage was found to be 0.713.

As to A23G U52A, the self-cleavage turned out to be 0.899.

Take A24C A43C: the self-cleavage was determined as 0.0956.

Consider A24C A43G, for which the self-cleavage came out at 0.157.

Regarding A23U A41G, the self-cleavage was 0.749.

Regarding A23G G51U, the self-cleavage worked out at 1.01.

With A24U G29C, the self-cleavage worked out at 0.115.

In the case of A23C G69A, the self-cleavage was determined as 0.379.

Turning to A23C G69C, the self-cleavage stood at 0.244.

As to A23C C48U, the self-cleavage worked out at 0.202.

As to A23C C48G, the self-cleavage was 0.0948.

In the case of A23C C48A, the self-cleavage stood at 0.0725.

A24G A28G: the self-cleavage was found to be 0.882.

In the case of A24U C50U, the self-cleavage turned out to be 0.307.

As for A23G A31U, the self-cleavage stood at 0.0848.

Regarding A23C A45C, the self-cleavage was determined as 0.0875.

A24U A43G: the self-cleavage is 0.159.

For the variant A23U U70C, the self-cleavage is 0.909.

Turning to A24C A44C, the self-cleavage came to 0.0908.

A23U A64G: the self-cleavage was found to be 0.474.

A23U A64C: the self-cleavage turned out to be 0.221.

Take A23U A64U: the self-cleavage was found to be 0.178.

With A22G U63A, the self-cleavage was found to be 0.22.

As to A22G U63G, the self-cleavage stood at 0.171.

As to A24G G34C, the self-cleavage was 1.34.

Take A24G G34U: the self-cleavage was found to be 0.956.

With A24G G34A, the self-cleavage came to 0.862.

A24G C38U: the self-cleavage came to 0.31.

For the variant A23G A28U, the self-cleavage came out at 0.417.

A23C U62A: the self-cleavage was 0.229.

For the variant A24C C48G, the self-cleavage was determined as 0.133.

With A24C G27C, the self-cleavage was 0.228.

With A24G A30U, the self-cleavage was 0.124.

Turning to A24G A30C, the self-cleavage stood at 0.119.

As to A24U U58G, the self-cleavage worked out at 0.483.

In the case of A24U U58C, the self-cleavage was 0.834.

Regarding A24U U58A, the self-cleavage amounted to 0.724.

A24U G68U: the self-cleavage came to 0.22.

Take A24U A30C: the self-cleavage was determined as 0.332.

A24U A30U: the self-cleavage worked out at 0.168.

For A23C G68A, the self-cleavage was found to be 0.26.

In the case of G25A A26G, the self-cleavage was 0.298.

On to G25A A26C, for which the self-cleavage was found to be 0.124.

Take A23G C65G: the self-cleavage came to 0.392.

As to A24U U70A, the self-cleavage was found to be 0.877.

With A24U U70G, the self-cleavage worked out at 0.533.

With A24U U70C, the self-cleavage turned out to be 0.743.

For the variant A24U A61G, the self-cleavage came out at 0.231.

In the case of A24C A26G, the self-cleavage came to 0.835.

Regarding A24C A26U, the self-cleavage turned out to be 0.463.

Regarding A24C A26C, the self-cleavage worked out at 0.338.

Regarding A24C U62A, the self-cleavage amounted to 0.3.

For the variant A24C U62C, the self-cleavage was found to be 0.297.

As for A24U A59C, the self-cleavage was 0.139.
